From the supplement of paper PMC9233669
This sample holds only a part of the variants without activity.

Legend:
biotinyl-Phe-oxazolone = test: self-aminoacylation, catalytic enhancement (BFO) (fold over background); higher = more active; k-Seq, kA / k0A0; sequences stand for … in GGGAAUGGAUCCACAUCUACGAAUUC…UUCACUGCAGACUUGACGAAGCUG
Method in brief: (§1)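 Working in 50 μL HEPES/NaCl/KCl/MgCl2/CaCl2 buffer with 5% acetonitrile at pH 6.9–7.0, mutagenized RNA pools (0.43 μM; 21-nt variable region) were reacted with 2–1250 μM of each biotinyl-aminoacyl-oxazolone for 90 minutes at room temperature. Streptavidin capture followed, with quantification by triplicate qPCR and Illumina sequencing. Catalytic enhancement is reported as median kA over the uncatalyzed rate, the low-activity peak of a bimodal Gaussian fit to the data.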

biotinyl-Met-oxazolone = test: self-aminoacylation, catalytic enhancement (BMO) (fold over background); higher = more active; k-Seq, kA / k0A0; sequences stand for … in GGGAAUGGAUCCACAUCUACGAAUUC…UUCACUGCAGACUUGACGAAGCUG
Method in brief: as §1

biotinyl-Trp-oxazolone = test: self-aminoacylation, catalytic enhancement (BWO) (fold over background); higher = more active; k-Seq, kA / k0A0; sequences stand for … in GGGAAUGGAUCCACAUCUACGAAUUC…UUCACUGCAGACUUGACGAAGCUG
Method in brief: as §1

biotinyl-Val-oxazolone = test: self-aminoacylation, catalytic enhancement (BVO) (fold over background); higher = more active; k-Seq, kA / k0A0; sequences stand for … in GGGAAUGGAUCCACAUCUACGAAUUC…UUCACUGCAGACUUGACGAAGCUG
Method in brief: as §1

biotinyl-Ile-oxazolone = test: self-aminoacylation, catalytic enhancement (BIO) (fold over background); higher = more active; k-Seq, kA / k0A0; sequences stand for … in GGGAAUGGAUCCACAUCUACGAAUUC…UUCACUGCAGACUUGACGAAGCUG
Method in brief: as §1

biotinyl-Leu-oxazolone = test: self-aminoacylation, catalytic enhancement (BLO) (fold over background); higher = more active; k-Seq, kA / k0A0; sequences stand for … in GGGAAUGGAUCCACAUCUACGAAUUC…UUCACUGCAGACUUGACGAAGCUG
Method in brief: as §1

Sequence | self-aminoacylation (biotinyl-Phe-oxazolone) | self-aminoacylation (biotinyl-Met-oxazolone) | self-aminoacylation (biotinyl-Trp-oxazolone) | self-aminoacylation (biotinyl-Val-oxazolone) | self-aminoacylation (biotinyl-Ile-oxazolone) | self-aminoacylation (biotinyl-Leu-oxazolone)
AUUACCCUGGUCAUCCAGUGU [Fam2.1 aminoacylation ribozyme variant] | 7.23 | 3.14 | 3.1 | 1.81 | 1.95 | 3.15
CUACUUCAAACUAUCGGUCUC [Fam1A.1 aminoacylation ribozyme variant] | 1.19 | 0.747 | 0.598 | 0.885 | 0.833 | 0.759
AUUCACCCAGGUCAUCGGGUA [Fam2.2 aminoacylation ribozyme variant] | 12.7 | 2.51 | 2.93 | 2.27 | 2.25 | 2.76
AAGUUUGCUAAUAGUCACCAG [Fam3.1 aminoacylation ribozyme variant] | 2.77 | 0.962 | 1.21 | 0.997 | 0.949 | 0.762
AUUUACCUAGGUCAUCGGGUU [Fam2.2 aminoacylation ribozyme variant] | 36.2 | 8.02 | 6.98 | 4.59 | 5.12 | 11.7
CCACACUUCAAGCAAUCGGAG [Fam1B.1 aminoacylation ribozyme variant] | 0.817 | 0.743 | 1.03 | 1.16 | 0.874 | 0.591
AAGUUUACUAAUCGUCGCAAG [Fam3.1 aminoacylation ribozyme variant] | 2.66 | 1.13 | 1.35 | 1.46 | 1.64 | 1.55
CCACACUUCACACAAUCGGUC [Fam1B.1 aminoacylation ribozyme variant] | 0.775 | 0.601 | 0.837 | 1.02 | 0.878 | 0.687
CCACACUUCAAACUAUCGGUC [Fam1B.1 aminoacylation ribozyme variant] | 1.09 | 0.781 | 0.882 | 0.909 | 0.976 | 0.83
CUACUUCUUACAAUCGGUCUG [Fam1A.1 aminoacylation ribozyme variant] | 0.695 | 0.812 | 0.524 | 0.707 | 0.767 | 0.624
AACUUUGCUAAUAGUCGCGAG [Fam3.1 aminoacylation ribozyme variant] | 19.5 | 2.99 | 3.11 | 2.76 | 3.52 | 3.74
AUACACCUAGGUCAUCCGGUG [Fam2.2 aminoacylation ribozyme variant] | 30.6 | 3.91 | 5.38 | 3.14 | 3.5 | 6.81
AUGACCCUGGCCAUCGAGUGA [Fam2.1 aminoacylation ribozyme variant] | 32 | 5.04 | 6.4 | 3.66 | 3.03 | 7.68
AAGAUUGCUAAUCGUCGCAAG [Fam3.1 aminoacylation ribozyme variant] | 1.34 | 1.57 | 2.1 | 1.52 | 2.12 | 1.2
CUACACUUCACGCAAUCGGUC [Fam1B.1 aminoacylation ribozyme variant] | 0.68 | 0.777 | 0.895 | 0.888 | 0.801 | 0.758
AUUCACCUUGGUCAUGGGGUG [Fam2.2 aminoacylation ribozyme variant] | 26.8 | 4.32 | 4.27 | 3.36 | 2.91 | 6.08
AUUAUCCUGGUCCUCGAGUGA [Fam2.1 aminoacylation ribozyme variant] | 21.9 | 4.56 | 6.54 | 2.33 | 2.4 | 5.19
AAGUGUGGUAAUAGUCGCAAG [Fam3.1 aminoacylation ribozyme variant] | 1.5 | 1.15 | 1.15 | 1.16 | 1.43 | 1.48
ACUACCCUGGCCAUCGAGUGA [Fam2.1 aminoacylation ribozyme variant] | 27.3 | 4.33 | 7.18 | 3.77 | 3.53 | 6.69
GAGUUUGCUAAUACUCGCAAG [Fam3.1 aminoacylation ribozyme variant] | 1.09 | 0.939 | 1.12 | 1.07 | 1.03 | 1.01
AUUACGCUGGUCACCGAGUGA [Fam2.1 aminoacylation ribozyme variant] | 47.5 | 6.73 | 7.92 | 4.31 | 3.71 | 7.46
AUUACCUUGGUCAUCCAGUGA [Fam2.1 aminoacylation ribozyme variant] | 22.5 | 4.51 | 5.48 | 2.84 | 3.16 | 4.83
ACACACUUCAAGCAAUCGGUA [Fam1B.1 aminoacylation ribozyme variant] | 2 | 1.66 | 2.19 | 1.55 | 1.73 | 1.84
AAGUUUGCUAAUAGAUGCAAG [Fam3.1 aminoacylation ribozyme variant] | 0.814 | 0.789 | 0.784 | 0.911 | 0.954 | 0.82
AUUCACCUAGGCCAUCUGGUG [Fam2.2 aminoacylation ribozyme variant] | 13.2 | 2.74 | 2.35 | 2.05 | 1.54 | 3.29
AGUACCCUGGUCAUCGAGUGA [Fam2.1 aminoacylation ribozyme variant] | 28.7 | 13.2 | 13.6 | 6.48 | 6.11 | 12.8

Sequence | self-aminoacylation (biotinyl-Phe-oxazolone) | self-aminoacylation (biotinyl-Met-oxazolone) | self-aminoacylation (biotinyl-Trp-oxazolone) | self-aminoacylation (biotinyl-Val-oxazolone) | self-aminoacylation (biotinyl-Ile-oxazolone) | self-aminoacylation (biotinyl-Leu-oxazolone)
CUAUACUUCAAGCAAUCGGUC [Fam1B.1 aminoacylation ribozyme variant] | 21.3 | 0.837 | 9.69 | 0.936 | 0.782 | 1.06
CCACACUUAAAGCAAUCGGUU [Fam1B.1 aminoacylation ribozyme variant] | 0.794 | 0.896 | 0.916 | 1.15 | 1.08 | 0.849
AUUACCCGGGUCAUAGAGUGA [Fam2.1 aminoacylation ribozyme variant] | 71.4 | 9.33 | 10.4 | 4.45 | 4.55 | 9.4
AUACACCUAGGUCAUCGGGUC [Fam2.2 aminoacylation ribozyme variant] | 7.44 | 1.31 | 1.18 | 1.29 | 1.08 | 1.57
AUACACCUAGGUCCUCGGGUG [Fam2.2 aminoacylation ribozyme variant] | 21.8 | 2.71 | 3.71 | 3.57 | 3.44 | 3.48
ACUCAGCUAGGUCAUCGGGUG [Fam2.2 aminoacylation ribozyme variant] | 30.7 | 4.79 | 7.25 | 4.84 | 4.07 | 4.79
CUCCUUCAAACAAUCUGUCUG [Fam1A.1 aminoacylation ribozyme variant] | 2.63 | 0.516 | 1.23 | 0.61 | 0.655 | 0.554
CUUACCCUGGUUAUCGAGUGA [Fam2.1 aminoacylation ribozyme variant] | 23.2 | 6.78 | 8.54 | 3.58 | 3.35 | 7.11
AUUCACCUAGGCGAUCGGGUG [Fam2.2 aminoacylation ribozyme variant] | 20.4 | 3.5 | 3.78 | 3.52 | 2.88 | 4.89
CCACACUUCAAGCAAUCUCUC [Fam1B.1 aminoacylation ribozyme variant] | 0.826 | 0.514 | 0.383 | 0.669 | 0.61 | 0.385
AUUACCCUGGUCAUCUAGGGA [Fam2.1 aminoacylation ribozyme variant] | 1.72 | 1.17 | 0.956 | 1.32 | 1.36 | 1.47
CCACACUUCAAGCGAUCGGUG [Fam1B.1 aminoacylation ribozyme variant] | 41.8 | 6.68 | 6.74 | 4.66 | 4.19 | 8.84
GUUCACCUAGGUCGUCGGGUG [Fam2.2 aminoacylation ribozyme variant] | 11 | 2.44 | 2.08 | 2.1 | 1.67 | 2.04
AUUACCCUGGACAUCGAGUGA [Fam2.1 aminoacylation ribozyme variant] | 19.6 | 5.32 | 5.97 | 2.79 | 2.52 | 5.18
CCACACUUCAAGCGCUCGGUC [Fam1B.1 aminoacylation ribozyme variant] | 3.37 | 0.81 | 1.41 | 1.09 | 1.04 | 1.21
AUUACCCUGGUCAUCUACUGA [Fam2.1 aminoacylation ribozyme variant] | 0.799 | 0.663 | 0.358 | 0.856 | 0.925 | 0.676
CCACACUUCAGGCAAUCGGUG [Fam1B.1 aminoacylation ribozyme variant] | 36.7 | 5.39 | 4.89 | 3.41 | 3.23 | 7.5
AUUAACCUGGUCUUCGAGUGA [Fam2.1 aminoacylation ribozyme variant] | 13 | 4.3 | 6.87 | 2.71 | 2.4 | 4.66
AAGUUUGCUAAGAGUCGCACG [Fam3.1 aminoacylation ribozyme variant] | 5.94 | 0.636 | 2.06 | 1.12 | 1.17 | 0.977
AAGUUAGCUAAUAGUUGCAAG [Fam3.1 aminoacylation ribozyme variant] | 1.8 | 1.45 | 2.07 | 1.33 | 1.47 | 1.59
UAGUUCGCUAAUAGUCGCAAG [Fam3.1 aminoacylation ribozyme variant] | 6.84 | 1.55 | 1.88 | 1.86 | 1.81 | 1.81
CUACUUGAAACAAUAGGUCUG [Fam1A.1 aminoacylation ribozyme variant] | 0.837 | 1.09 | 0.841 | 1.05 | 1.06 | 1.13
AUUACCCUUGUCGUCGAGUGA [Fam2.1 aminoacylation ribozyme variant] | 2.62 | 1.06 | 0.966 | 1.11 | 1.13 | 1.05
AAGUGUGCUAAUAGUCGCAUG [Fam3.1 aminoacylation ribozyme variant] | 1.09 | 1.44 | 1.98 | 1.3 | 1.38 | 1.86
AUUCACCUAGGUCAUCUGGUG [Fam2.2 aminoacylation ribozyme variant] | 16.5 | 2.71 | 2.62 | 1.9 | 1.93 | 3.41
